{"source": "patent WO2016008851A1", "about": "(dated 2016)", "binders": {"B1": {"name": "36C2 (recombinant chimeric antibody: mouse 36C2 variable domains, human IgG1 constant domains) (antibody, V domains shown)", "VH": "QVQLQQSGAELARPGTSLKMSCKATGYTFTNYWIAWVKQRPGYGLEWIGSIFPGGDYTNYNEKFKGKATLTADTSSSTSYMQLSSLTSEDSAIYYCTRPYYSNYGHFDYWGQGTTLTVSS", "VL": "not shown", "notes": "also called chimeric antibody 36C2"}, "B2": {"name": "36C2 (original hybridoma antibody) (antibody, V domains shown)", "VH": "B1 VH", "VL": "not shown"}, "B3": {"name": "Antibody A1 (antibody, V domains shown)", "VH": "QVQLVQSGAEVKKPGASVKVSCKATGYTFTNYWIAWVKQAPGQGLEWMGSIFPGGDYTNYNEKFKGKVTMTRDTSTSTSYMELSSLRSEDTAVYYCARPYYSNYGHFDYWGQGTLVTVSS", "VL": "EIVLTQSPATLSLSPGERATLSCRASESVDNSGIGFMNWYQQKPGQAPKLLIYAASNQGSGIPARFSGSGSGTDFTLTISRLEPEDFAMYYCQQNKELPWTFGGGTKLEIK"}, "B4": {"name": "Antibody A3 (antibody, V domains shown)", "VH": "B3 VH with N31D, K38R, K67R, V93I", "VL": "B3 VL with V3I, S7F, L21I, K49R, M89V, G104Q"}, "B5": {"name": "Antibody A4 (antibody, V domains shown)", "VH": "B3 VH with N31D, K38R, K67R", "VL": "B3 VL with K49R, M89V, G104Q"}, "B6": {"name": "Antibody B1 (antibody, V domains shown)", "VH": "EVQLVQSGAEVKKPGASVKVSCKASGFSFTGYYMHWVRQAPGQGLEWVGLIIPHNDYTVNNQKFKGRVTMTRDTSTSTAYMELSSLRSEDTAVYYCARSDYYGAMDYWGQGTLVTVSS", "VL": "EIVMTQSPATLSVSPGERATLSCRASQNIGTSIHWYQQKPGQAPRLLIKYASNSIYGIPARFSGSGSGTEFTLTISSLQSEDIAVYYCQQGASWPPFTFGQGTKLEIK"}, "B7": {"name": "Antibody B3 (antibody, V domains shown)", "VH": "B6 VH", "VL": "B6 VL with N53D, I55V"}, "B8": {"name": "Antibody B4 (antibody, V domains shown)", "VH": "B6 VH", "VL": "B6 VL with N53D, I55K, Y56D"}}, "note": "Substitutions are numbered along the chain they refer to.", "data": [{"target": "T1, recombinant human IL-1B (human, UniProt P01584 117-269)", "T1 construct": "also called rec. human IL-1B; hIL-1B", "assay": "Kinexa, solution equilibrium titration of hIL-1B against 10 pM antibody; mean ± SEM (N = 3)", "units": {"Kd": "pM"}, "values": [{"binder": "B1", "Kd": 5.56}]}, {"target": "recombinant mouse IL-1B (mouse, UniProt P10749 118-269)", "sequence (P10749 118-269 limits assumed)": "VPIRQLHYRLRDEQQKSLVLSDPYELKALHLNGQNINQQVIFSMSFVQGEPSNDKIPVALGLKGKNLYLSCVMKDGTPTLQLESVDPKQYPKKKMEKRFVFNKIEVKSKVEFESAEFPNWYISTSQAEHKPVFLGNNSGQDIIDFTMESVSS", "assay": "cell-based or functional assay", "units": {"IC50, mouse IL-1 B-induced KC release, mouse endothelial bEnd3 cells stimulated with 15 pM recombinant mouse IL-1 B": "nM", "IC50, rec. mouse IL-1 B, HEK blue": "pM", "IC90, rec. mouse IL-1 B, HEK blue": "pM"}, "values": [{"binder": "B2", "IC50, mouse IL-1 B-induced KC release, mouse endothelial bEnd3 cells stimulated with 15 pM recombinant mouse IL-1 B": 0.5}, {"binder": "B3", "IC50, rec. mouse IL-1 B, HEK blue": 1140, "IC90, rec. mouse IL-1 B, HEK blue": 3240}, {"binder": "B4", "IC50, rec. mouse IL-1 B, HEK blue": 998, "IC90, rec. mouse IL-1 B, HEK blue": 3640}, {"binder": "B5", "IC50, rec. mouse IL-1 B, HEK blue": 1080, "IC90, rec. mouse IL-1 B, HEK blue": 3980}]}, {"target": "T1, recombinant human IL-1B", "assay": "cell-based or functional assay", "units": {"IC50, rec. human IL-1 B, HEK blue": "pM", "IC50, rec. human IL-1 B, MRC-5 (IL-6 production)": "pM", "IC90, rec. human IL-1 B, HEK blue": "pM", "IC90, rec. human IL-1 B, MRC-5 (IL-6 production)": "pM"}, "values": [{"binder": "B1", "IC50, rec. human IL-1 B, HEK blue": 17, "IC50, rec. human IL-1 B, MRC-5 (IL-6 production)": 7, "IC90, rec. human IL-1 B, HEK blue": 150, "IC90, rec. human IL-1 B, MRC-5 (IL-6 production)": 44}, {"binder": "B6", "IC50, rec. human IL-1 B, HEK blue": 13, "IC50, rec. human IL-1 B, MRC-5 (IL-6 production)": 13, "IC90, rec. human IL-1 B, HEK blue": 110, "IC90, rec. human IL-1 B, MRC-5 (IL-6 production)": 110}, {"binder": "B7", "IC50, rec. human IL-1 B, HEK blue": 8, "IC50, rec. human IL-1 B, MRC-5 (IL-6 production)": 8, "IC90, rec. human IL-1 B, HEK blue": 257, "IC90, rec. human IL-1 B, MRC-5 (IL-6 production)": 257}, {"binder": "B8", "IC50, rec. human IL-1 B, HEK blue": 18, "IC50, rec. human IL-1 B, MRC-5 (IL-6 production)": 18, "IC90, rec. human IL-1 B, HEK blue": 98, "IC90, rec. human IL-1 B, MRC-5 (IL-6 production)": 98}, {"binder": "B3", "IC50, rec. human IL-1 B, HEK blue": 33, "IC50, rec. human IL-1 B, MRC-5 (IL-6 production)": 10, "IC90, rec. human IL-1 B, HEK blue": 329, "IC90, rec. human IL-1 B, MRC-5 (IL-6 production)": 131}, {"binder": "B4", "IC50, rec. human IL-1 B, HEK blue": 42, "IC50, rec. human IL-1 B, MRC-5 (IL-6 production)": 13, "IC90, rec. human IL-1 B, HEK blue": 340, "IC90, rec. human IL-1 B, MRC-5 (IL-6 production)": 162}, {"binder": "B5", "IC50, rec. human IL-1 B, HEK blue": 40, "IC50, rec. human IL-1 B, MRC-5 (IL-6 production)": 16, "IC90, rec. human IL-1 B, HEK blue": 495, "IC90, rec. human IL-1 B, MRC-5 (IL-6 production)": 125}]}, {"target": "recombinant cynomolgus IL-1B (cynomolgus, UniProt P79182 117-268, limits assumed)", "sequence (P79182 117-268 limits assumed)": "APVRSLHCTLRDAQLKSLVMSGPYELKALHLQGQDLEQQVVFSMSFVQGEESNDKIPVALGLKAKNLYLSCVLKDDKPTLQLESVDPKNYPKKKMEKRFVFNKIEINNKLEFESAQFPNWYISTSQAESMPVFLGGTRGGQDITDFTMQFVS", "assay": "cell-based or functional assay", "units": {"IC50, rec. cyno IL-1 B, HEK blue": "pM", "IC90, rec. cyno IL-1 B, HEK blue": "pM"}, "values": [{"binder": "B1", "IC50, rec. cyno IL-1 B, HEK blue": 14, "IC90, rec. cyno IL-1 B, HEK blue": 154}, {"binder": "B6", "IC50, rec. cyno IL-1 B, HEK blue": 13, "IC90, rec. cyno IL-1 B, HEK blue": 127}, {"binder": "B7", "IC50, rec. cyno IL-1 B, HEK blue": 14, "IC90, rec. cyno IL-1 B, HEK blue": 154}, {"binder": "B8", "IC50, rec. cyno IL-1 B, HEK blue": 20, "IC90, rec. cyno IL-1 B, HEK blue": 101}, {"binder": "B3", "IC50, rec. cyno IL-1 B, HEK blue": 30, "IC90, rec. cyno IL-1 B, HEK blue": 167}, {"binder": "B4", "IC50, rec. cyno IL-1 B, HEK blue": 23, "IC90, rec. cyno IL-1 B, HEK blue": 236}, {"binder": "B5", "IC50, rec. cyno IL-1 B, HEK blue": 26, "IC90, rec. cyno IL-1 B, HEK blue": 205}]}, {"target": "Endogenous human IL-1B (THP1 supernatants) (human, UniProt P01584 117-269)", "assay": "cell-based or functional assay", "units": {"IC50, Endogenous human IL-1 B (THP1 supernatants), HEK blue": "pM", "IC90, Endogenous human IL-1 B (THP1 supernatants), HEK blue": "pM"}, "values": [{"binder": "B1", "IC50, Endogenous human IL-1 B (THP1 supernatants), HEK blue": 3, "IC90, Endogenous human IL-1 B (THP1 supernatants), HEK blue": 96}, {"binder": "B6", "IC50, Endogenous human IL-1 B (THP1 supernatants), HEK blue": 3, "IC90, Endogenous human IL-1 B (THP1 supernatants), HEK blue": 68}, {"binder": "B7", "IC50, Endogenous human IL-1 B (THP1 supernatants), HEK blue": 1, "IC90, Endogenous human IL-1 B (THP1 supernatants), HEK blue": 75}, {"binder": "B8", "IC50, Endogenous human IL-1 B (THP1 supernatants), HEK blue": 7, "IC90, Endogenous human IL-1 B (THP1 supernatants), HEK blue": 91}, {"binder": "B3", "IC50, Endogenous human IL-1 B (THP1 supernatants), HEK blue": 9, "IC90, Endogenous human IL-1 B (THP1 supernatants), HEK blue": 150}, {"binder": "B4", "IC50, Endogenous human IL-1 B (THP1 supernatants), HEK blue": 8, "IC90, Endogenous human IL-1 B (THP1 supernatants), HEK blue": 246}, {"binder": "B5", "IC50, Endogenous human IL-1 B (THP1 supernatants), HEK blue": 36, "IC90, Endogenous human IL-1 B (THP1 supernatants), HEK blue": 262}]}, {"target": "T1, recombinant human IL-1B", "assay": "Kinexa", "units": {"Kd": "pM"}, "values": [{"binder": "B1", "Kd": "< 10"}]}]}
